Measured values as given in PMC6779417.

Biological target: 70S ribosome (Escherichia coli MRE600), translating on an mRNA hairpin (Escherichia coli MRE600)
Assay: single-molecule fluorescence with optical tweezers

- EF-G residence time on the ribosome before hairpin unwinding (tau unwinding): 0.25 s
Substance: Cy3-labeled EF-G (S73C EF-G labeled with Cy3-monomaleimide) (from UniProt P0A6M8 1-704) (enzyme)
